20 sequences from a protein production outcome set (Wang et al. 2014) can be followed below.

A short description of the data set: label from the status in PepcDB records.
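Also: failed if final PepcDB status was selected cloned or expressed and not failed if soluble or beyond.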

Consider “MTERSFEGSAYSDYRSSHQKPGYGTDYAETFRSGYYAALWSRIERPLVEGILSPLGGPGRSCLDFACGTGRVAAVAGPLFGEVVGVDVSRSMLACARVPGNVKLVEADLTVAPLSRRFDVVTAFRFFLNAEDTLKRDALSAIHEHLNDGGLLVSNVHMNATSPMGLACRFLNRFQGRVVRSTLSIHAYRQMLVSNGFVVESVIGYGFLPRPGWLLPRLCETLVGPVETICRRAGVPGRFAQNFLVVARKQ”, for which the protein production result was “failed”.
As for “MTESDRDQEASMREVVIVKSTPQRGKFNAFAELVGKLVSETRDFPGCLGAYLMLAPERNEQVVMHIWETPDALEAYLTWRADRGDFLEINEYLEVEQDFKTYQLA”, the entry is “not failed”; as for “MTETGDDLATVKKPIPFLVIFKDLRHVFSRDTTGREILGIAFPAALALAADPIASLIDTAFVGRLGAVQLAAVGVSIAIFNQASRITIFPLVSLTTSFVAEEDTMEKMKEEANKANLVHAETILVQDSLEKGISSPTSNDTNQPQQPPAPDTKSNSGNKSNKKEKRTIRTASTAMILGLILGLVQAIFLIFSSKLLLGVMGVKPNSPMLSPAHKYLSIRALGAPALLLSLAMQGIFRGFKDTKTPLFATVVADVINIVLDPIFIFVLRLGIIGAAIAHVISQYFMTLILFVFLAKKVNLIPPNFGDLQFGRFLKNGLLLLARTIAVTFCQTLAAAMAARLGTTPMAAFQICLQVWLTSSLLNDGLAVAGQAILACSFAEKDYNKVTAVASRVLQMGFVLGLGLSVFVGLGLYFGAGVFSKDPAVIHLMAIGIPFIAATQPINSLAFVLDGVNFGASDFAYTAYSMVGVAAISIAAVIYMAKTNGFIGIWIALTIYMALRAITGIARMATGTGPWRFLRGRSSSSSS”, “failed”.
As for “MTETHQQLMKLPVNQVFFKYFVPATLGLILMSANILIDGLFVGNGIGTAALAGVNLSYPVISLIMAIALWIGIGGATKYSISIGENRPKKASSIFSLALFLALIISVLLGVFGILNIQTISIWLGANSDTSSFVIEYLSVMFLFGWVITLEQVLSIFVRNDGSPKLSMMALATTSIVNIILNFYTIMILDMGVTGAAISTVLGGFAGLLVLSLHFFNRQAQLRRPAFQWSWKSLMHIFAIGFPSFLAEAGLLVFVTGYNLAMASLAGTEGVAAFSVINYLHGFMFLSFFGIEMALQPMISYYHGAEETEQIKSSMKIGEKTAVILGILLLVIGWGAAPFLVGLFGIESTEIQQLAIDGIRLFFIGYTFLGYNFVYMSYFQSIGRAGSSVVIIILRSFVSLFILLWILPKFIGVTGVWLSLPLSEFFVAVLLFFIARKHVMGKGNPAIGKG”, the entry is “failed”.
As for “MTETKPRIAIRYCTQCNWLLRAGWMAQEILQTFASDIGEVSLIPSTGGLFEITVDGTIIWERKRDGGFPGPKELKQRIRDLIDPERDLGHVDRTKHEGLDTLEHHHHHH”, the entry is “not failed”; as for “MTEVAHTASGSTNTMDREGLPVAETTCAPGLPLWARPEARTALGDTLRPGGFSLTDRLATLAGVHPGWRVLDVGCGTGATVLHLRQRYGASAFGCDRSTSLTPGSNNHKGLPVIAADAANLPFADGSMKMVFCECVLSLLVKPLEVLRGLRRLLVPGGLLGVSDLYLRGEGHARVTEGSCLAWQATRMRIESLLHEAGFALHTFEDHSPLLRETAARLALSGALHGGAMNCGERAFPSRDACRRCSPEGIAAPPQATPCSMTECSFSPPATRAVTEQVARPGYFLLLAQSLKGTRED”, “failed”.
Take “MTFCFWMRDTCHQRRRADIGSANADRYWEEDMTGTPRLLESRWDDAYAQTLDEPGKLLYRSNLLGADKRITNYGGGNTSAKVLEIDPLTGEKVRVMWVKGSGGDVGTIKLDGFATLYLEKLEALKGIYKGVEDEDRMVGFLPHCTFNLNPRAASIDTPLHGFVPFDHVDHMHPDAIIAIAASKNSKELTQQIFGDDIGWLPWRRPGFQLGLDLEAFVKANPTAKGVVLESHGLFTWDDDAKACYELTLAIINKAIEWFAAETEGKTIFGGALAKSLPVAERRAIAARLMPEIRGRIGREERKLGHFDDQDAVLEFVNSKDLKPLGNLGTSCPDHFLRTKIRPLILDLDTAKPDVDALTAGLDKALEAYRADYSRYYEACRHDNSPKMRDPNPVIFLIPGVGMLSFAKDKATARIAGEFYVNAINVMRGASTVSEYQGLPEQEAFDIEYWLLEEAKLQRMPKPKSLAGRVAFVTGGAGGIGRATAERLADEGACVVLADIDEAALEAAKGDFVKRYSGDAVRTVKLDVTQEDDVISAFAEASVEFGGVDILVSNAGIASSAPVEDTTLAMWNKNIDILATGYFLVSREAFRLLRRQNLGGNIVFVASKNGLASSPNASAYCTAKAAEIHLARCLALEGAEAGIRVNTVNPDAVLRGSKIWNGEWREQRAASSKIEVTDLEEHYRKRSMLKLNVFPEDIAEAIYFLASDASAKSTGNIINVDAGNAQSFTR”: the protein production entry is given as “failed”.
Next, “MTFLIPAYNEEKSIGPLIDRIKMLCPDSEIIVVDNNSSDRTSEIATSRGVRVIFEGKQGKANAMVAAFRNTRTEYAVMMDADLTYLPDDSRVLVEVLKAEGADVVLGSRLNGEKEDGAISRINTVGNHILSFTASILYSPVSDVCTGHWAFNRRAIRHILEEGLNYSGFELEAEMFSKLARAGLKIVEVPITYRKRSDEPKLSSFTDGFKIFRTLVLERLRLEHHHHHH”: “failed”; “MTFNKKEKLSITALLIILYLIPAGLEWLEFDSENLHVIAISLPIWLAFFYLGPFWLFYWTQQNKHVARLHVVAQGVLYVLMMFAGANIVSRLHSMAFPQYQFPIKEQGLSAFLWGVFIFSMTHMYLLYQRFVQEQRLRKEAQLADLTSRLNPHFLFNSLNTISALIHSSPDKADDVLHKLSDILRYSVDQQNKWVPLEHELAVCETYLTVEKARFTDNLNISWQIASSVDMRQLKVPPLLLQPLIENVMKHVKRRPIELLISVQAEQGKLIFKVKDNGKGFSEPSLNEQSKAGQGLNIVKQRVDIAGGELSLFNDTSEQGGAVCEITLPIHACV”: “failed”; “MTFSANFSLVLPEVVLAIAALVLLVAGTFRGKVGAIFTLAAVASLIAAAATAVLGPKGVAFGGVYVADAAATYAKVAIYLSSAVAVVLGDRWLAQRGDQKFEYAVLVILAALGMGVTASAGDLISLYIGVELQSLALYVLAAMRRDDAKSSEAGLKYFVLGALSSGLLLYGSSLIYGFTGSTHFSQIALAAAHGGSHGVGLLFGLVFVICGLAFKVSAAPFHMWTPDVYEGAPTPVVGFFSAAPKLAAMMMFARVLGDAFPASEEQWRQILVIAALLSVFVGAFAGLAQSNLKRLWAYSSIANVGYALLGVAAGGEVGLQSMLIFMTLYMVDVTGFFACLQALNRDGKPMETIQDMAGLVKQRPGIALAMTAFSLSALGLPPFSGFWAKYFVFKAAMGSGDVMLQWAAVIGLVGSVVAAFYYLRLIKAMWFDDAAGAVDAPSPSARAVGFAAAIFSFPIVLVALVWLEPAAKAAAAAFGHA”: “failed”.
On to “MTFSKELREASRPIIDDIYNDGFIQDLLAGKLSNQAVRQYLRADASYLKEFTNIYAMLIPKMSSMEDVKFLVEQIEFMLEGEVEAHEVLADFINEPYEEIVKEKVWPPSGDHYIKHMYFNAFARENAAFTIAAMAPCPYVYAVIGKRAMEDPKLNKESVTSKWFQFYSTEMDELVDVFDQLMDRLTKHCSETEKKEIKENFLQSTIHERHFFNMAYINEKWEYGGNNNE”, for which the protein production entry is on record as “not failed”.
As for “MTGGAAAAPPGRGAAFSWCLFDFANSGYPTVVATFVFSAYVTKAVAATPEAGTAAWGYAMGASGLLIALLAPIFGAVADHSGRRKPWLGLFSLLCVASTALMWTIRPDPAFLLAALVLAALSNAAFEIGGVFYNAMLPDVTTPERMGRLSGWAWGLGYAGGLACLVIALLALVQADPPPFGLDKAAAEPVRATLVLVALWFVVFGWPLFAFVPERPTGRVLALGAAARGAIDSLKGLPALFRGDPRLGWFLLARMLYTEGLNTLFAFGGIYAAGTFDMGFDQIIVFGIGLNITAGLGAFAFGWIDDWLGSPRTIVVGLIGLIGFCVAVLLVEDTAWFVGLALTMGIFFGPVQAASRTHIARVAPPDRRGELFGLFALTGKISAFAGPLAVGLATDLSGSQRLGMATVVVFLVAGLGLLVKTRAPRG”, the entry is “failed”; as for “MTGPTTDADAAVPRRVLIAEDEALIRMDLAEMLREEGYEIVGEAGDGQEAVELAELHKPDLVIMDVKMPRRDGIDAASEIASKRIAPIVVLTAFSQRDLVERARDAGAMAYLVKPFSISDLIPAIELAVSRFREITALEGEVATLSERLETRKLVERAKGLLQTKHGMTEPDAFKWIQRAAMDRRTTMKRVAEVVLETLGTPKDT”, “not failed”.
Next, “MTGSWLETLLLPFTVPFLRDAMIIALLVAVPTALLSCFLVLKGWALMGDAISHAVLPGVVLAYVAGLPLGVGAFAAGLGCALVTGYLKDNSRIKQDTVMGVVFSGMFGLGIVLHTSIRTDVHLDHILFGDMLGVGSSDLLESGLIALLVVGAIALKGRDLLLHAFDPQQARAIGLPVGLLHYGLLCLLALTIVGALKATGILLTVALLIGPGAIAFLFTRRFSSMLLAAVVISSLASVLGVYISLFLDSAPAPTIVLLLTLTFIAAFMVSRQRDRQRARGVDRPV”: “failed”.
“MTGTSDDEEGKWKNRSTTLRRLGRQYSPDVTPEVASRRLKQWIVGNPVLLGLLHENGWTASRRVLTPKQVEQIVRVLGEP”: the protein production entry was “failed”.
As for “MTGTSNIPTHGKEHKDAPALLPLPAPNPHHTHAAHPGNPSHDRPPSRGKLFIKTHGCQMNEYDSAKMADVLTTTEALELTDNPEEADIILINTCSIREKAQEKVFSQLGRWRALKTSGRDVIIGVGGCVASQEGEAIVKRAPYVDLVFGPQTLHRLPDMIRARREQNRPQVDIRFPEIEKFDHLPTPRAEGPSAFVSIMEGCSKYCSFCVVPYTRGEEVSRPFEDVLTEIAHLATQGVREINLLGQNVNAYRGAMDPGPSNNTNPAPPPYADLGLLIRAIAQFESIGRIRFTTSHPLEFSDSLVEAYRDVPQLANHLHLPVQSGSDRILSAMKRGYTALEFKSKIRKLRAVRPDISISSDFIIGFPGESDTDFQKTMQLIEDIGFDQSFSFIYSRRPGTPASNLEDHTPDEIKRTRLEHLQKHINTYAADISKRMIGTVQTVLVEGPSKKNPNELTGKTENMRPVNFPGHPRLIGQFIDVHITEALSNSLRGRVHTNLEHHHHHH”, the entry is “not failed”; as for “MTGYGKTFALLGTCATLLGPPLSAQTGSVLSDLQNEEVQARYRAAAAERIACPRIEGDAALMAAFAKDAASKWDRAAMGCATEYGARAMEALSLPTNLIWAVATFRTDNIETHLQVLGAHLDYFEVLDKSYSAHYQGIEMATELGLRWEQARERSETLMTRIDPLVPKLTEARLLRAAYLLASTLRETPPEVQNTAVAAALEDLQIAIAENPEALDGLGPLLLGQVLAVLPEFLGGDILAAIDLLEQAHALNPTDLSVHHTLVEAYLGERETDKALALLRHAASIDPSTENPQDYADEMKYLGGLALRAGAPDLARQMAGHRSAILAAHPQLDPRKEMAALGHGGADPLTGKKPDDLN”, “failed”.
As for “MTHETDQLYQAVQATRPLLRNITAAVERGTLREGVTVGQRAILEGLSLTPGATAPQLGAALQMKRQYISRILQEVQRAGLIERRTNPEHARSHRYWLTPRGEAIITAIRADEMAKLALFSEGFSSVELTAYHKVQLALTRFFADLAKEA”, the entry is “not failed”; as for “MTHTTANQVIHYVDQDGNTVFDDNDSQTLDYERSVTIDEVTGEITAYGDWKAVDGDEFGSVTSSDKPGYAIDKPVVSGEKPTITNGKDGKVSDVEVTVTYTALEHHHHHH”, “not failed”.
As for “MTHVQTMLETYPKDLGDIDRAKLIECIKACFECAQTCTACADACLSEDMVAELTKCIRTNLDCADICVATGNMLSRHTGYDANVTRAVLEACRTVCKACADECEQHASMHEHCRACAEACRRCEKACADLLGSLG”, the entry is “failed”.
